Laboratory results reported in patent US20230192824A1 (UNITED STATES OF AMERICA AS REPRESENTED BY THE SECRETARY OF …, published 2023).

Legend:
[1] = target: T1, CfaE, tip adhesin of CFA/I fimbriae on wild type ETEC strain H10407 (Escherichia coli (ETEC) strain H10407, UniProt P25734 23-360); test: cell-based or functional assay
T1 sequence: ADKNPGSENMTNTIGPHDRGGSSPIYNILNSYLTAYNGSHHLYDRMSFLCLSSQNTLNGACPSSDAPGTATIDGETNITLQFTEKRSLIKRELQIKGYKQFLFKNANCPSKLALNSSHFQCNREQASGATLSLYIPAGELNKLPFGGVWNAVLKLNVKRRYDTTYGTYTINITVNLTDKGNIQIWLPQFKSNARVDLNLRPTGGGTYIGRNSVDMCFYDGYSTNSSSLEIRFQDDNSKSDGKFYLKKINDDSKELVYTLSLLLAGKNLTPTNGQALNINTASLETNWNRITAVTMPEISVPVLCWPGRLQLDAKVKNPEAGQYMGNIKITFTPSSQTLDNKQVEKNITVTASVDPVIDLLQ

[2] = target: CsfD, tip adhesin of CS4 fimbriae on wild type ETEC strain BANG10-SP (Escherichia coli (ETEC) strain BANG10-SP); test: cell-based or functional assay
[3] = target: CsuD, tip adhesin of CS14 fimbriae on wild type ETEC strain WS3294A (Escherichia coli (ETEC) strain WS3294A); test: cell-based or functional assay
[4] = target: T2, CsbD, tip adhesin of CS17 fimbriae on wild type ETEC strain WS6788A (Escherichia coli (ETEC) strain WS6788A); test: cell-based or functional assay
T2 chain: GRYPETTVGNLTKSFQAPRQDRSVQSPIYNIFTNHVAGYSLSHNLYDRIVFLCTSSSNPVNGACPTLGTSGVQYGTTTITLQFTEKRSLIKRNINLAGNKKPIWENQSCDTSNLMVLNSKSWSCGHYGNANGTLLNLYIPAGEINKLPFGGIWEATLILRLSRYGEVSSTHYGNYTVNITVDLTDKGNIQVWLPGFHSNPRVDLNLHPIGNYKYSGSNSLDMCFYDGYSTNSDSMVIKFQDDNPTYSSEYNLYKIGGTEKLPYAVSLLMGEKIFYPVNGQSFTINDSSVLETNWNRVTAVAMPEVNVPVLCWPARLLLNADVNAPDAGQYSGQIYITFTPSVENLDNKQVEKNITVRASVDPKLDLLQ

[5] = target: T3, CsbD L85I/H144A, tip adhesin of CS17 fimbriae on wild type ETEC strain LSN02-013966/A (Escherichia coli (ETEC) strain …); test: cell-based or functional assay
T3 chain: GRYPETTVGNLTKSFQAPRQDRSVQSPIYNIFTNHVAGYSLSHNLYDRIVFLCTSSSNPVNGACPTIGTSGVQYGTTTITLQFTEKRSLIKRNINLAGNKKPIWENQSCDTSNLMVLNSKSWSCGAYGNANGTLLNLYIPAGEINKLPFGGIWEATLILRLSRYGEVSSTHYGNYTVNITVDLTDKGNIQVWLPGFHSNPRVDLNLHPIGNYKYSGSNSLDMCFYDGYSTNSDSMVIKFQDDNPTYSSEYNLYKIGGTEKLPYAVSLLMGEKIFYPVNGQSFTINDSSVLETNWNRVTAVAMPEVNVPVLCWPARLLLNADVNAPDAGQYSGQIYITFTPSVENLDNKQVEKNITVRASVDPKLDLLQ

[6] = target: CooD, tip adhesin of CS1 fimbriae on wild type ETEC strain WS1974A (Escherichia coli (ETEC) strain WS1974A); test: cell-based or functional assay
[7] = target: T4, CotD, tip adhesin of CS2 fimbriae on wild type ETEC strain C91f (Escherichia coli (ETEC) strain C91f); test: cell-based or functional assay
T4 chain: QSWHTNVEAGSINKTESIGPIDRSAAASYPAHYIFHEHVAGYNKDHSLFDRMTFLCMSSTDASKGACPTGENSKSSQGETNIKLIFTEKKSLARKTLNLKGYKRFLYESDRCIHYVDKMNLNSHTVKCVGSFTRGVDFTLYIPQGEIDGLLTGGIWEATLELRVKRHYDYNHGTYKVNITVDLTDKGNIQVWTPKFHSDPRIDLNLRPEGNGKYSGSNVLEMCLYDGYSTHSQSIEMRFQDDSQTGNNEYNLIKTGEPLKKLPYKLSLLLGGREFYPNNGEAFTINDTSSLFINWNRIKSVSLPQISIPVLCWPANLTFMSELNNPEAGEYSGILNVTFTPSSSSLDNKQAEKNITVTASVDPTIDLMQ

[8] = target: T5, dsc19CsbD6xhis (WS6788A), donor strand complemented recombinant CS17 fimbrial tip adhesin CsbD (Escherichia coli (ETEC) strain WS6788A); test: ELISA on coated adhesin
T5 construct: also called dscCsbD; primary CsbD
T5 chain: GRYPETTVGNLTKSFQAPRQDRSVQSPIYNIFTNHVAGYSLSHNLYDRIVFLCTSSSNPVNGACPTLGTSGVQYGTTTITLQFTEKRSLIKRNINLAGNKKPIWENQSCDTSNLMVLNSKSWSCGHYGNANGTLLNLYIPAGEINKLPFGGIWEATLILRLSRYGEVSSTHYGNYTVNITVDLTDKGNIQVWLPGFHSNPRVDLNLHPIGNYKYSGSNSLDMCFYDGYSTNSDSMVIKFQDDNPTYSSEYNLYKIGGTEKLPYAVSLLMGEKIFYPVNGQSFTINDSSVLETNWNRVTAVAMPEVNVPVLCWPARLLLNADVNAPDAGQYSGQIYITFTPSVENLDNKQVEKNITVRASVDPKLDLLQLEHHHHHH

[9] = target: T6, dsc19CotD6xhis (C91f), donor strand complemented recombinant CS2 fimbrial tip adhesin CotD (Escherichia coli (ETEC) strain C91f); test: ELISA on coated adhesin
T6 construct: also called dscCotD; CS2 adhesin
T6 chain: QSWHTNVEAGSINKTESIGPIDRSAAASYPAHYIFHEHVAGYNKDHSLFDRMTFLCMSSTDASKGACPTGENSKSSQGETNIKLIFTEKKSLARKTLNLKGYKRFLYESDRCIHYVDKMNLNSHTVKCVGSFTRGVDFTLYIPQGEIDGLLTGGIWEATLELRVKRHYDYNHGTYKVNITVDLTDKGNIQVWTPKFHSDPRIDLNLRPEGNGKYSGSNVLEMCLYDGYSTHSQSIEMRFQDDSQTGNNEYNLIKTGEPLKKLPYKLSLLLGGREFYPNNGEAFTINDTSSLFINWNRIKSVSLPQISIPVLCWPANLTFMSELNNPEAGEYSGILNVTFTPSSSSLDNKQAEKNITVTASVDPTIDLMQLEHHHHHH

[10] = target: T7, CfaE PD, pilin domain (residues 203-383) of CfaE (Escherichia coli (ETEC) strain H10407); test: ELISA on coated CfaE domains (FIG. 10)
T7 construct: Tag not written for this construct; also called CfaE pilin domain
T7 chain: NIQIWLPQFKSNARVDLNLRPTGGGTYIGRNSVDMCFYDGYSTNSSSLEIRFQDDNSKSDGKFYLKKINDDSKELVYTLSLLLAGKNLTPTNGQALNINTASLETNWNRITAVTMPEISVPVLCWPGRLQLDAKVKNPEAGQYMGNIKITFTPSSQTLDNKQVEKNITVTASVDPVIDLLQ

B1: anti-CfaE mouse mAb P1F9 (antibody, V domains shown)
VH: QVQLQQPGAELVKPGASVKLSCKASGYTFTSYWMHWVRQRPGQGLDWIGEIDPSDSYINYNQKFKGKATLTVDKSSSTAYMQLSSLTSEDSAVYYCGRKSLGVSVLAYWGQGTPVTVSA
VL: DIVMTQSHKFMSTSVGDRVSISCTASQDVNAAVAWYQQKPGQSPKLLIYWASTRHTGVPDRFTGSGSGTDYTLTISSVQAEDLALYYCQQHYSTPLTFGAGTKLELK
In the case of B1, the “MIC in HAI” value [1] is reported as 1.5 µg/mL, the “MIC in HAI” value [2] is reported as over 250 µg/mL and the “MIC in HAI” value [3] is reported as over 250 µg/mL. For the same binder, the “MIC in HAI” value [4] was over 250 µg/mL, the “MIC in HAI” value [5] was over 250 µg/mL and the “MIC in HAI” value [6] was over 250 µg/mL. The “MIC in HAI” value [7] was over 250 µg/mL, the binding result [8] was “no binding (tested: mAb 2 ug/ml)” and the binding result [9] was “no binding (tested: mAb 2 ug/ml)”. B1: binds [10].
